# B1: Ydj1 (Hsp40) (natural protein)
# chain: MVKETKFYDILGVPVTATDVEIKKAYRKCALKYHPDKNPSEEAAEKFKEASAAYEILSDPEKRDIYDQFGEDGLSGAGGAGGFPGGGFGFGDDIFSQFFGAGGAQRPRGPQRGKDIKHEISASLEELYKGRTAKLALNKQILCKECEGRGGKKGAVKKCTSCNGQGIKFVTRQMGPMIQRFQTECDVCHGTGDIIDPKDRCKSCNGKKVENERKILEVHVEPGMKDGQRIVFKGEADQAPDVIPGDVVFIVSERPHKSFKRDGDDLVYEAEIDLLTAIAGGEFALEHVSGDWLKVGIVPGEVIAPGMRKVIEGKGMPIPKYGGYGNLIIKFTIKFPENHFTSEENLKKLEEILPPRIVPAIPKKATVDECVLADFDPAKYNRTRASRGGANYDSDEEEQGGEGVQCASQ
# Target: Ssa1 (Hsp70) (Saccharomyces cerevisiae, UniProt P10591 1-642)
# Assay: cross-linking
# Ssa1 (Hsp70), sequence (P10591 whole entry): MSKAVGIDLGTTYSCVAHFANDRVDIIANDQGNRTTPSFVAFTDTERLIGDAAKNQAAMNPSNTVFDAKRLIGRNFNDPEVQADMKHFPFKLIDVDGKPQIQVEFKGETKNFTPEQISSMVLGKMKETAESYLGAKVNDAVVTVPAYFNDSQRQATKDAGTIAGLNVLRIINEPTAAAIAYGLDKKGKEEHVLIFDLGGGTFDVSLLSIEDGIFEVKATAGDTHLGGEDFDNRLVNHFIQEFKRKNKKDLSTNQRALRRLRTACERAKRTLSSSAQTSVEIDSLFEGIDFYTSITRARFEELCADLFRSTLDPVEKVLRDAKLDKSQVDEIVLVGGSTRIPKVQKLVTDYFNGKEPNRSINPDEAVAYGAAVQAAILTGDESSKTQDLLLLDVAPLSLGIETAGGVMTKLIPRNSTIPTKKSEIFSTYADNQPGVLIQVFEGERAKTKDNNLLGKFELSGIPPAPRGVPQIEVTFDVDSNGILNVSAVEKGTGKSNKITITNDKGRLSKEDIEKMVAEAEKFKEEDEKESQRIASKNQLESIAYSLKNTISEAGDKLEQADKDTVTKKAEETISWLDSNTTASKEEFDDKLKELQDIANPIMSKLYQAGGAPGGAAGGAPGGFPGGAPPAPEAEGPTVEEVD
binder,measurement,value
B1,binding result,binds

# Reference: article doi:10.1101/2021.06.06.447241 (bioRxiv, 2021)
